In US20020058323A1, “Monkey urotensin II” (priority 2000, published 2002):

Target: T1, Macaca fascicularis Urotensin II receptor (Macaca mulatta, UniProt Q8HYC3)
T1 construct: expressed in transfected cells
T1 sequence (Q8HYC3 1-389): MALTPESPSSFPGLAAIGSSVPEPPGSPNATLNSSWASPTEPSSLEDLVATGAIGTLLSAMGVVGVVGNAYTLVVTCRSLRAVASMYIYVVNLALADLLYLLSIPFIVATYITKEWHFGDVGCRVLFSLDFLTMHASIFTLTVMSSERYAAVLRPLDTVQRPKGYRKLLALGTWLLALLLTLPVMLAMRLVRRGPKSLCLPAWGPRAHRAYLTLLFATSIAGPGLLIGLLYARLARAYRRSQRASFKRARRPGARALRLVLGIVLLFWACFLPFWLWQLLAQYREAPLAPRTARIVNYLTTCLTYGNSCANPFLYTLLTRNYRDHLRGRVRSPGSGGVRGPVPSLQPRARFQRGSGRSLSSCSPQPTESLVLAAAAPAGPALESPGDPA
Experiment: Radioligand binding with Scatchard plot analysis on a stable HEK 293 cell line transfected with the Urotensin II receptor
Conditions: radiolabeled ligand, single set of binding sites, transfected HEK 293 cells
From the text: 1. A stable cell line was developed from HEK 293 cells transfected with mammalian pCDN vector of the Macaca fascicularis Urotensin II receptor.

Kd: 0.214 ± 0.065 nM
B1: Macaca fascicularis Urotensin II: Macaca fascicularis Urotensin II polypeptide of the invention (SEQ ID NO:2, 125 amino acids), ligand of a G-protein coupled receptor (protein)
chain: MYKLASCCLLFIGFLNPLFSLPLLDSGEVSLQLSAPHEDAPLTSEELERASLLQILPEMLLGAERGDSLRKADSSTNIFNPRGNLRKFQDFSGQDPDILLSHLLARIRKPYKKRETPDCFWKYCV
modifications: MACACA FASCICULARIS
